Results: paper PMC11203732, “Structural Evaluation of a Nitroreductase Engineered for Improved Activation of the 5-Nitroimidazole PET Probe SN33623” (International Journal of Molecular Sciences, 2024)

Molecular target: the molecule itself
Assay: crystal structure; hanging-drop vapor diffusion at 18 °C; 7 mg/mL protein in 40 mM Tris-HCl pH 7.0, 200 mM NaCl; precipitant 0.2 M sodium chloride, 0.1 M sodium acetate pH 4.0, 33% PEG 8000; four molecules in the asymmetric unit; FMN bound

B1: E. coli NfsB F70A/F108Y (enzyme)
chain: MDIISVALKRHSTKAFDASKKLTPEQAEQIKTLLQYSPSSTNSQPWHFIVASTEEGKARVAKSAAGNYVANERKMLDASHVVVFCAKTAMDDVWLKLVVDQEDADGRYATPEAKAANDKGRKFFADMHRKDLHDDAEWMAKQVYLNVGNFLLGVAALGLDAVPIEGFDAAILDAEFGLKEKGYTSLVVVPVGHHSVEDFNATLPKSRLPQNITLTEV
notes: Nitroreductase NfsB of Escherichia coli, 24 kDa subunit, with the substitutions F70A and F108Y; synthetic gene (Twist Bioscience) cloned into pET28a+; Homodimer with one FMN in each of two active sites at the dimer interface; also called mutNfsB; double-mutant F70A/F108Y
  stoichiometry N: 2
